The source of these data is PMC3417418 (2012).

Residue numbers refer to the chain shown, from its start.

Experiment [1] deals with T1, CXCR3 (Homo sapiens, UniProt P49682).
T1 chain: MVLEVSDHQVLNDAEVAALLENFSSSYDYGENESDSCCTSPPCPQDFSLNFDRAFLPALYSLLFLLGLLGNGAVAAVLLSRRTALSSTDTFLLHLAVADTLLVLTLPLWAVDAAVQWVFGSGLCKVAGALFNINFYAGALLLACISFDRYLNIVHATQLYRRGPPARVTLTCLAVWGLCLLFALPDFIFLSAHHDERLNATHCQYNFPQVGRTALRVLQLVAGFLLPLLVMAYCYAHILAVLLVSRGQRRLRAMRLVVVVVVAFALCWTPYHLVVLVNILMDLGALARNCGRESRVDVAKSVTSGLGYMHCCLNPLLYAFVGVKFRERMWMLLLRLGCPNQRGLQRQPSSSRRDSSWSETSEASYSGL
The experiment is described as follows: homologous competition 125I radioligand binding on L1.2 cells.

Experiment [2] has as its target T2, CXCR3 (Homo sapiens, UniProt P49682).
T2 chain: T1 chain with N278D, D297N
The experiment is described as above.

Experiment [3] concerns the target T3, CXCR3 (Homo sapiens, UniProt P49682).
T3 chain: T1 chain with N278D, D282N
The description is as above.

The target in experiment [4] is T4, CXCR3 (Homo sapiens, UniProt P49682).
T4 chain: T1 chain with E196Q, N278D
The description is as above.

For experiment [5], the target named is T5, CXCR3 (Homo sapiens, UniProt P49682).
T5 chain: T1 chain with D112N, N278D
Described as above.

Experiment [6] addresses T6, CXCR3 (Homo sapiens, UniProt P49682).
T6 chain: T1 chain with D195N, N278D
The experiment is described as above.

For experiment [7], the target named is T7, CXCR3 (Homo sapiens, UniProt P49682).
T7 chain: T1 chain with N278D
The experiment is described as follows: competition with 125I-CXCL11 on L1.2 cells.

The target of experiment [8] is T7, CXCR3. The experiment is described as follows: competition with 125I-CXCL10 on L1.2 cells.

B1: CXCL11 (protein)
chain: FPMFKRGRCLCIGPGVKAVKVADIEKASIMYPSNNCDKIEVIITLKENKGQRCLNPKSKQARLIIKKVERKNF
For B1, the Kd was determined as 2.6 nM with CXCR3 [1]; 26.3 nM with CXCR3 [2]; 1.4 nM in the experiment with CXCR3 [3]; 0.4 nM in the experiment with CXCR3 [4]; 3.8 nM with CXCR3 [5]; 16 nM with CXCR3 [6]. Besides, the values for the IC50 in the experiment with CXCR3 [7] and with CXCR3 [8] were 1.2 nM and 0.4 nM, respectively.
